These are literature values, as cited in patent publication US20250282866A1, “TREATMENT OF DISEASES RELATED TO ATP-BINDING CASSETTE TRANSPORTER 1 DYSFUNCTION USING TREM2 AGONISTS” (VIGIL NEUROSCIENCE, INC., priority 2020, published 2025).

The target in this data set is T1, human TREM2 (Homo sapiens, UniProt Q9NZC2).
T1 sequence (Q9NZC2 19-230): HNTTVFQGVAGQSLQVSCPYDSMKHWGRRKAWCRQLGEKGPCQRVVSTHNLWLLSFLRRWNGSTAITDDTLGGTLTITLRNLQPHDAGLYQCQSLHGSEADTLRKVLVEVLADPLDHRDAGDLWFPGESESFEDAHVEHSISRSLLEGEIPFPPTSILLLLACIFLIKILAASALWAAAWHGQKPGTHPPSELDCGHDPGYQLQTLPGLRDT
The note with it: for Binding Signal (fold over 6E7 Parental antibody) 1st screen 110 nM or 10 nM: concentration 110 nM or 10 nM (footnote a not given).

Setting [1] is: values printed without asterisk.

Like-named read-outs stand apart in the source and are kept apart here. Marks after values point to notes of the source that are not given here.

B1: V85: 6E7 variant: VH T30R, I50T, Q99S; VL L54R (antibody, V domains shown)
VH: EVQLVQSGAEVKKPGESLKISCKGSGYSFRSYWIAWVRQMPGKGLEWMGTIYPGDSDTRYSPSFQGQVTISADKSISTAYLQWSSLKASDTAMYFCARSRTFYYDSSDYFDYWGQGTLVTVSS
VL: DIQMTQSPSSVSASVGDRVTITCRASQGISSWLAWYQQKPGKAPKLLIYAASSRQNGVPSRFSGSGSGTDFTLTISSLQPEDFATYFCQQADSFPRTFGQGTKLEIK
B1: the “Binding Signal (fold over 6E7 Parental antibody) 1st screen 110 nM or 10 nM” value under setting [1] is 5.41 fold over 6E7 Parental antibod. Further, where the note is “2nd screen”, the “Binding Signal (fold over 6E7 Parental antibody) 2nd screen 2 nM” value is 5.41 fold over 6E7 Parental antibod and the “Binding Signal (fold over 6E7 Parental antibody) 2nd screen 10 nM” value is 5.37 fold over 6E7 Parental antibod.

B2: V90: 6E7 variant: VH Y32E; VL S31R (antibody, V domains shown)
VH: EVQLVQSGAEVKKPGESLKISCKGSGYSFTSEWIAWVRQMPGKGLEWMGIIYPGDSDTRYSPSFQGQVTISADKSISTAYLQWSSLKASDTAMYFCARQRTFYYDSSDYFDYWGQGTLVTVSS
VL: DIQMTQSPSSVSASVGDRVTITCRASQGISRWLAWYQQKPGKAPKLLIYAASSLQNGVPSRFSGSGSGTDFTLTISSLQPEDFATYFCQQADSFPRTFGQGTKLEIK
With B2, for the setting “values printed with asterisk”, the “Binding Signal (fold over 6E7 Parental antibody) 1st screen 110 nM or 10 nM” value is 0.33* fold over 6E7 Parental antibod. Further, under “2nd screen, 100 nM”, the “Binding Signal (fold over 6E7 Parental antibody) 2nd screen 100 nM” value is recorded as 0.36 fold over 6E7 Parental antibod.

B3: V88: 6E7 variant: VH T30G; VL S53R, N56R, F94S (antibody, V domains shown)
VH: EVQLVQSGAEVKKPGESLKISCKGSGYSFGSYWIAWVRQMPGKGLEWMGIIYPGDSDTRYSPSFQGQVTISADKSISTAYLQWSSLKASDTAMYFCARQRTFYYDSSDYFDYWGQGTLVTVSS
VL: DIQMTQSPSSVSASVGDRVTITCRASQGISSWLAWYQQKPGKAPKLLIYAASRLQRGVPSRFSGSGSGTDFTLTISSLQPEDFATYFCQQADSSPRTFGQGTKLEIK
With B3, the “Binding Signal (fold over 6E7 Parental antibody) 1st screen 110 nM or 10 nM” value under setting [1] was 4.92 fold over 6E7 Parental antibod. Further, under “2nd screen”, the “Binding Signal (fold over 6E7 Parental antibody) 2nd screen 2 nM” value was 5.57 fold over 6E7 Parental antibod and the “Binding Signal (fold over 6E7 Parental antibody) 2nd screen 10 nM” value was 5.30 fold over 6E7 Parental antibod.

B4: V86: 6E7 variant: VH T30G, I34L, Q65E, Q99S; VL L54R (antibody, V domains shown)
VH: EVQLVQSGAEVKKPGESLKISCKGSGYSFGSYWLAWVRQMPGKGLEWMGIIYPGDSDTRYSPSFEGQVTISADKSISTAYLQWSSLKASDTAMYFCARSRTFYYDSSDYFDYWGQGTLVTVSS
VL: DIQMTQSPSSVSASVGDRVTITCRASQGISSWLAWYQQKPGKAPKLLIYAASSRQNGVPSRFSGSGSGTDFTLTISSLQPEDFATYFCQQADSFPRTFGQGTKLEIK
In the case of B4, the “Binding Signal (fold over 6E7 Parental antibody) 1st screen 110 nM or 10 nM” value under setting [1] is recorded as 4.80 fold over 6E7 Parental antibod. For the same molecule, for the setting “2nd screen”, the “Binding Signal (fold over 6E7 Parental antibody) 2nd screen 2 nM” value is 5.17 fold over 6E7 Parental antibod and the “Binding Signal (fold over 6E7 Parental antibody) 2nd screen 10 nM” value was 5.02 fold over 6E7 Parental antibod.

B5: V87: 6E7 variant: VH T30R, T58V, S63D, Q99S; VL N56W (antibody, V domains shown)
VH: EVQLVQSGAEVKKPGESLKISCKGSGYSFRSYWIAWVRQMPGKGLEWMGIIYPGDSDVRYSPDFQGQVTISADKSISTAYLQWSSLKASDTAMYFCARSRTFYYDSSDYFDYWGQGTLVTVSS
VL: DIQMTQSPSSVSASVGDRVTITCRASQGISSWLAWYQQKPGKAPKLLIYAASSLQWGVPSRFSGSGSGTDFTLTISSLQPEDFATYFCQQADSFPRTFGQGTKLEIK
On to B5, for which the “Binding Signal (fold over 6E7 Parental antibody) 1st screen 110 nM or 10 nM” value under setting [1] was 3.84 fold over 6E7 Parental antibod. Further, for the setting “2nd screen”, the “Binding Signal (fold over 6E7 Parental antibody) 2nd screen 2 nM” value was 4.86 fold over 6E7 Parental antibod and the “Binding Signal (fold over 6E7 Parental antibody) 2nd screen 10 nM” value is listed as 3.93 fold over 6E7 Parental antibod.
